# From the supplement of paper PMC9112550, “Optimization of the antimicrobial peptide Bac7 by deep mutational scanning” (BMC Biology, 2022)
# Tested on: Escherichia coli TOP10
# Experiment: shrunken log2 fold change of peptide-encoding DNA abundance (4.5 h post-induction vs induction); higher = less antimicrobial activity (less host growth inhibition)
# Settings: time post-induction: 4.5 h; library: site-saturation at positions 5, 18, 19, 20
# 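Further: peptides expressed intracellularly from a pBAD plasmid library in pooled LB shake-flask culture, induced with 0.3% L-arabinose, DNA abundance read by NGS, three biological replicates, DESeq2 with apeglm shrinkage.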
row,Sequence,shrunken log2 fold change
1,RRIRMRPPRLPRPRPRPTCDPRP,0.79
2,RRIRCRPPRLPRPRPRPRDEPRP,0.342
3,RRIRWRPPRLPRPRPRPGCDPRP,0.818
4,RRIRKRPPRLPRPRPRPTHMPRP,0.37
5,RRIRYRPPRLPRPRPRPWDLPRP,0.0112
6,RRIRYRPPRLPRPRPRPTRHPRP,-0.00457
7,RRIRSRPPRLPRPRPRPICAPRP,0.47
8,RRIRNRPPRLPRPRPRPARYPRP,0.0763
9,RRIRSRPPRLPRPRPRPDNMPRP,-0.208
10,RRIRQRPPRLPRPRPRPVFYPRP,-0.147
11,RRIRSRPPRLPRPRPRPGPHPRP,-0.109
12,RRIRQRPPRLPRPRPRPFNPPRP,-0.077
13,RRIRCRPPRLPRPRPRPCEKPRP,0.0534
14,RRIRARPPRLPRPRPRPSHNPRP,-0.245
15,RRIRVRPPRLPRPRPRPIHRPRP,-0.3
16,RRIRARPPRLPRPRPRPNKCPRP,-0.311
17,RRIRRRPPRLPRPRPRPQFCPRP,-0.0309
18,RRIRFRPPRLPRPRPRPKGQPRP,0.105
19,RRIRGRPPRLPRPRPRPCFAPRP,0.789
20,RRIRGRPPRLPRPRPRPVFMPRP,0.0348
21,RRIRHRPPRLPRPRPRPWPLPRP,-0.306
22,RRIRPRPPRLPRPRPRPPQWPRP,0.403
23,RRIRIRPPRLPRPRPRPQHNPRP,-0.735
24,RRIRNRPPRLPRPRPRPISLPRP,-0.0292
25,RRIRQRPPRLPRPRPRPGYKPRP,-0.0992

row,Sequence,shrunken log2 fold change
1,RRIRFRPPRLPRPRPRPWENPRP,-0.0884
2,RRIRLRPPRLPRPRPRPRCIPRP,-0.0325
3,RRIRDRPPRLPRPRPRPYSFPRP,-0.0868
4,RRIRDRPPRLPRPRPRPMHYPRP,0.0552
5,RRIRQRPPRLPRPRPRPWRAPRP,0.0749
6,RRIRVRPPRLPRPRPRPLVQPRP,-0.137
7,RRIRGRPPRLPRPRPRPETNPRP,1.95
8,RRIRHRPPRLPRPRPRPAAMPRP,0.191
9,RRIRDRPPRLPRPRPRPHMNPRP,0.001
10,RRIRNRPPRLPRPRPRPAQYPRP,0.103
11,RRIRIRPPRLPRPRPRPERSPRP,-0.164
12,RRIRHRPPRLPRPRPRPFGNPRP,-0.119
13,RRIRVRPPRLPRPRPRPYAYPRP,0.0587
14,RRIRIRPPRLPRPRPRPIEMPRP,-0.00843
15,RRIRKRPPRLPRPRPRPPLLPRP,0.524
16,RRIRNRPPRLPRPRPRPQYIPRP,-0.0546
17,RRIRTRPPRLPRPRPRPILIPRP,-0.485
18,RRIRKRPPRLPRPRPRPHPGPRP,0.293
19,RRIRQRPPRLPRPRPRPTKHPRP,-0.167
20,RRIRMRPPRLPRPRPRPGFKPRP,0.46
21,RRIRYRPPRLPRPRPRPTKPPRP,-0.013
22,RRIRFRPPRLPRPRPRPFNVPRP,-0.0431
23,RRIRERPPRLPRPRPRPQFCPRP,-0.0627
24,RRIRPRPPRLPRPRPRPHHDPRP,-0.266
25,RRIRPRPPRLPRPRPRPEVCPRP,0.138

row,Sequence,shrunken log2 fold change
1,RRIRSRPPRLPRPRPRPLSQPRP,-0.00748
2,RRIRYRPPRLPRPRPRPFIEPRP,-1.2
3,RRIRKRPPRLPRPRPRPGASPRP,0.787
4,RRIRARPPRLPRPRPRPPWAPRP,0.576
5,RRIRDRPPRLPRPRPRPLQGPRP,0.287
6,RRIRIRPPRLPRPRPRPVSDPRP,-0.619
7,RRIRSRPPRLPRPRPRPYNTPRP,-1.1
8,RRIRLRPPRLPRPRPRPTHPPRP,0.0349
9,RRIRTRPPRLPRPRPRPGQMPRP,0.0303
10,RRIRARPPRLPRPRPRPAVRPRP,0.545
11,RRIRVRPPRLPRPRPRPSAIPRP,-0.258
12,RRIRDRPPRLPRPRPRPRNPPRP,-0.0578
13,RRIRHRPPRLPRPRPRPIHEPRP,-0.153
14,RRIRCRPPRLPRPRPRPHWRPRP,0.382
15,RRIRWRPPRLPRPRPRPPIGPRP,0.324
16,RRIRDRPPRLPRPRPRPIKDPRP,-4
17,RRIRDRPPRLPRPRPRPEDGPRP,0.316
18,RRIRARPPRLPRPRPRPMHTPRP,0.261
19,RRIRIRPPRLPRPRPRPGIDPRP,-0.00862
20,RRIRVRPPRLPRPRPRPFHEPRP,0.324
21,RRIRSRPPRLPRPRPRPDPWPRP,0.0152
22,RRIRIRPPRLPRPRPRPIGDPRP,-0.0264
23,RRIRNRPPRLPRPRPRPLTEPRP,0.284
24,RRIRPRPPRLPRPRPRPYENPRP,-0.66
25,RRIRFRPPRLPRPRPRPENYPRP,0.0219

row,Sequence,shrunken log2 fold change
1,RRIRMRPPRLPRPRPRPQGFPRP,-0.00865
2,RRIRERPPRLPRPRPRPVAPPRP,0.246
3,RRIRMRPPRLPRPRPRPKTWPRP,0.602
4,RRIRMRPPRLPRPRPRPVLYPRP,-0.0553
5,RRIRTRPPRLPRPRPRPTAVPRP,-0.133
6,RRIRKRPPRLPRPRPRPDETPRP,3.04
7,RRIRVRPPRLPRPRPRPGAPPRP,0.603
8,RRIRARPPRLPRPRPRPFQKPRP,0.121
9,RRIRVRPPRLPRPRPRPHDVPRP,-0.116
10,RRIRDRPPRLPRPRPRPSKNPRP,-0.106
11,RRIRGRPPRLPRPRPRPLHPPRP,0.697
12,RRIRVRPPRLPRPRPRPQKAPRP,-0.0576
13,RRIRGRPPRLPRPRPRPWAIPRP,0.259
14,RRIRFRPPRLPRPRPRPCSQPRP,0.0319
15,RRIRARPPRLPRPRPRPDYVPRP,0.353
16,RRIRDRPPRLPRPRPRPIFHPRP,-0.158
17,RRIRVRPPRLPRPRPRPWAPPRP,0.0631
18,RRIRRRPPRLPRPRPRPIAKPRP,0.252
19,RRIRGRPPRLPRPRPRPFTDPRP,0.143
20,RRIRDRPPRLPRPRPRPCSAPRP,0.45
21,RRIRCRPPRLPRPRPRPRMPPRP,0.187
22,RRIRGRPPRLPRPRPRPYLFPRP,-0.0066
23,RRIRIRPPRLPRPRPRPEYSPRP,-0.119
24,RRIRQRPPRLPRPRPRPVQCPRP,-0.16
25,RRIRPRPPRLPRPRPRPAEAPRP,0.103

row,Sequence,shrunken log2 fold change
1,RRIRSRPPRLPRPRPRPQLFPRP,0.309
2,RRIRKRPPRLPRPRPRPIFGPRP,2.55
3,RRIRPRPPRLPRPRPRPTTGPRP,0.12
4,RRIRKRPPRLPRPRPRPGMDPRP,0.195
5,RRIRSRPPRLPRPRPRPTFKPRP,-0.0617
6,RRIRCRPPRLPRPRPRPVCVPRP,-0.0801
7,RRIRWRPPRLPRPRPRPHEHPRP,0.0185
8,RRIRWRPPRLPRPRPRPGGCPRP,0.732
9,RRIRRRPPRLPRPRPRPIRAPRP,0.266
10,RRIRMRPPRLPRPRPRPVPIPRP,0.0109
11,RRIRPRPPRLPRPRPRPPTTPRP,0.327
12,RRIRWRPPRLPRPRPRPKEQPRP,0.0237
13,RRIRIRPPRLPRPRPRPFENPRP,-0.00783
14,RRIRIRPPRLPRPRPRPVDDPRP,-0.0762
15,RRIRDRPPRLPRPRPRPYILPRP,-0.592
16,RRIRSRPPRLPRPRPRPWKCPRP,-0.0598
17,RRIRSRPPRLPRPRPRPHQYPRP,-0.549
18,RRIRTRPPRLPRPRPRPIGSPRP,0.0344
19,RRIRARPPRLPRPRPRPGVFPRP,0.502
20,RRIRQRPPRLPRPRPRPQHGPRP,-0.000236
21,RRIRCRPPRLPRPRPRPWMQPRP,-0.0437
22,RRIRLRPPRLPRPRPRPFDEPRP,0.0466
23,RRIRGRPPRLPRPRPRPSSRPRP,0.372
24,RRIRMRPPRLPRPRPRPALGPRP,0.625
25,RRIRFRPPRLPRPRPRPLVYPRP,-0.631
